B1: FIXa-Y155F/K247N/N249S/R318Y/R338E/R403E (protein)
chain 1: not shown
chain 2: not shown
B2: FIXa-D203N/F205T/R318Y/E410N (protein)
chain 1: not shown
chain 2: not shown
B3: FIXa-K247N/N249S/R318Y/R338E/R403E (protein)
chain 1: not shown
chain 2: not shown
B4: FIXa-Y155F/N260S/R318Y/R338E/R403E/E410N (protein)
chain 1: not shown
chain 2: not shown
B5: FIXa-D104N/K106S/N260S/R318Y/R338E/R403E/E410N (protein)
chain 1: not shown
chain 2: not shown
B6: FIXa-A103N/N105S/Y155F/R318Y/R338E/R403E/E410N (protein)
chain 1: not shown
chain 2: not shown
B7: FIXa-R318Y/R338E/Y345A/N346D/R403E/E410N (protein)
chain 1: not shown
chain 2: not shown
B8: FIXa-D104N/K106S/Y155F/R318Y/R338E/R403E/E410N (protein)
chain 1: not shown
chain 2: not shown

Values joined by “and” are separate entries in the source; they are usually repeats but may differ in a detail not shown here. Equal entries are not always repeated.

Usually KM stands for the concentration of substrate that gives half-maximal velocity. As a reminder, the kcat is the maximal rate divided by the concentration of active sites.

Chain of Factor X (FX), P00742 (P00742 whole entry, looked up): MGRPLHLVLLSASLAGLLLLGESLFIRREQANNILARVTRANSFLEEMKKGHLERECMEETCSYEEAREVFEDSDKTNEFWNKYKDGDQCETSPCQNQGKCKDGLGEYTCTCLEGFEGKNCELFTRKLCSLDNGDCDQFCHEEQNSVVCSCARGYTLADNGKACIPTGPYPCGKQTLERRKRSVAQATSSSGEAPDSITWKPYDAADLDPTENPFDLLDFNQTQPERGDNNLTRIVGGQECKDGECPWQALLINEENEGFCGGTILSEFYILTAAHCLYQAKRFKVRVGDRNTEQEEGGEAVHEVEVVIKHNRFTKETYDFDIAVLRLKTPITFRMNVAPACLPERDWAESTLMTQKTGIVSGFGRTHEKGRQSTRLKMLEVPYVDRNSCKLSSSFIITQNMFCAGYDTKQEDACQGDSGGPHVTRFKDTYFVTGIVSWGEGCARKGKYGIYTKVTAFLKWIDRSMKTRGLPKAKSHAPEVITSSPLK

The data set addresses Factor X (FX), P00742.
As for B1, the KM was 67.3 nM and the kcat is 5.7 s⁻¹.

On to B2, for which the “% of WT kcat/KM” value is 88% and 85%; the Michaelis-Menten constant (KM) turned out to be 45.7 nM; the KM for FX activation by FIXa in the Xase complex (FVIIIa/PC-PS/Ca2+), fluorogenic Spectrafluor FXa assay was 45.7 nM; the kcat amounted to 1.6 s⁻¹.

B3: the Michaelis-Menten constant (KM) was 53.6 nM and the turnover number (kcat) is 10.5 s⁻¹.

Consider B4, for which the “% of WT kcat/KM (against Catalyst Biosciences WT FIXa), FX activation in the Xase complex” value came out at 156%; the KM was 83.9 nM; the KM (nM) for activation of FX by FIXa in the Xase complex (FVIIIa, PC/PS vesicles, Ca2+), fluorogenic Spectrafluor FXa assay turned out to be 83.9 nM; the kcat/KM for FX activation by FIXa in the Xase complex (FVIIIa, PC/PS vesicles, Ca2+), indirect fluorogenic Spectrafluor FXa assay came out at 7e+07 M⁻¹ s⁻¹.

As to B5, the “% of WT kcat/KM (against Catalyst Biosciences WT FIXa), FX activation in the Xase complex” value was 196%; the Michaelis constant (KM) was found to be 61.1 nM; the KM (nM) for activation of FX by FIXa in the Xase complex (FVIIIa, PC/PS vesicles, Ca2+), fluorogenic Spectrafluor FXa assay turned out to be 61.1 nM; the kcat/KM for FX activation by FIXa in the Xase complex (FVIIIa, PC/PS vesicles, Ca2+), indirect fluorogenic Spectrafluor FXa assay came out at 8.8e+07 M⁻¹ s⁻¹.

With B6, the “% of WT kcat/KM” value is 283% and 274%; the Michaelis-Menten constant (KM) amounted to 50.7 nM; the KM for FX activation by FIXa in the Xase complex (FVIIIa/PC-PS/Ca2+), fluorogenic Spectrafluor FXa assay turned out to be 50.7 nM; the kcat is 6.4 s⁻¹.

As for B7, the Michaelis-Menten constant (KM) was found to be 56.5 nM and the catalytic constant (kcat) is 1.2 s⁻¹.

B8: the “% of WT kcat/KM” value is 394% and 382%; the KM was 48 nM; the KM for FX activation by FIXa in the Xase complex (FVIIIa/PC-PS/Ca2+), fluorogenic Spectrafluor FXa assay worked out at 48 nM; the kcat worked out at 8.5 s⁻¹.

Source of the values: US11491212.
